Patent publication US20250388696A1 (NAVIGO PROTEINS, published 2025)
Changes are numbered by the printed parent chain. Where no end group is shown, it is not given here.

B1: Fusion proteins with albumin binding domain c42 (SEQ ID NO: 34) (designed binder, not shown: small tags and cut ends)
chain: LAEAKVLALKELDKYGISNYYKNLINNAKTIESVKALKDEIVAA
modifications: also: part of fusion protein, targeting moiety, linker, tag and order not given here
B2: Fusion proteins with albumin binding domain c49 (SEQ ID NO: 37) (designed binder, not shown: small tags and cut ends)
chain: B1 chain with Y20D, S33G, K35E, E40A, V42L
modifications: also: part of fusion protein, targeting moiety, linker, tag and order not given here
B3: Fusion proteins with albumin binding domain c45 (SEQ ID NO: 35) (designed binder, not shown: small tags and cut ends)
chain: B1 chain with Y20G, S33G
modifications: also: part of fusion protein, targeting moiety, linker, tag and order not given here
B4: Fusion proteins with albumin binding domain c50 (SEQ ID NO: 38) (designed binder, not shown: small tags and cut ends)
chain: B1 chain with Y21G, S33G, K35E, E40A, V42L
modifications: also: part of fusion protein, targeting moiety, linker, tag and order not given here
B5: fusion protein 218708 (designed binder, not shown: small tags and cut ends)
chain (part 1 of 2): not shown
chain (part 2 of 2): LAEAKVLALKELDKYGISNYYKNLINNAKTVEGVKALKEAIVAALP
notes: also called CID 218708
B6: fusion protein 218692 (designed binder, not shown: small tags and cut ends)
chain (part 1 of 2): not shown
chain (part 2 of 2): LAEAKVLAIKELDKAGISNYYFNLINNAKTVEGVKDLKAQIVAA
notes: also called CID 218692
B7: fusion protein 218687 (designed binder, not shown: small tags and cut ends)
chain (part 1 of 2): not shown
chain (part 2 of 2): B1 chain with I31V, S33G, D39E, E40A
notes: also called CID 218687
B8: fusion protein 218703 (designed binder, not shown: small tags and cut ends)
chain (part 1 of 2): not shown
chain (part 2 of 2): B1 chain with S33G, D39A, E40Q
notes: also called CID 218703
B9: fusion protein 218699 (designed binder, not shown: small tags and cut ends)
chain (part 1 of 2): not shown
chain (part 2 of 2): B1 chain with I31V, S33G, D39E, E40A
notes: also called CID 218699
B10: fusion protein 218704 (designed binder, not shown: small tags and cut ends)
chain (part 1 of 2): not shown
chain (part 2 of 2): B6 chain (part 2 of 2)
notes: also called CID 218704
B11: fusion protein 218691 (designed binder, not shown: small tags and cut ends)
chain (part 1 of 2): not shown
chain (part 2 of 2): B1 chain with S33G, D39A, E40Q
notes: also called CID 218691

The binders below were run against T1, mouse serum albumin (mouse, UniProt P07724 25-608) (assay: SPR, MSA immobilised).
T1 construct: also called MSA
Protocol: (§1) Recombinant protein A, HSA, MSA or target (either ED-B or Her2) was immobilized on a High Capacity Amine sensor chip (Bruker) after NHS/EDC activation with a Sierra SPR-32 system (Bruker). The chip was equilibrated with SPR running buffer (PBS 0.05%, Tween pH 7.3). Injection of ethanolamine after target immobilization was used to block free NHS groups. To determine the binding of fusion proteins to FAP, the Fc-tagged target was injected with 60 or 30 nM to Protein A coupled spots followed by the injection of fusion proteins.
(§2) Binding proteins were applied to the chip in serial dilutions with a flow rate of 30 μl/min. Upon binding, analyte accumulated on the surface increasing the refractive index. This change in the refractive index was measured in real time and plotted as response or resonance units versus time. The association was performed for 120 seconds and the dissociation for 180 seconds. After each run, the chip surface was regenerated with 30 μl regeneration buffer (10 mM glycine pH 2.0 or pH 1.5) and equilibrated with running buffer. Binding studies were carried out using the Sierra SPR-32 system (Bruker); data evaluation was operated via the Sierra Analyser software, provided by the manufacturer, by the use of the Langmuir 1:1 model (RI=0).
In the case of B1, the Kd is reported as ≥ 100 nM. For B2, the Kd was ≥ 100 nM. With B3 the Kd was ≥ 100 nM. For B4, the Kd was ≥ 100 nM.

Each binder was assayed against T2, human serum albumin (human, UniProt P02768 25-609) (assay: SPR, HSA immobilised on the chip, pH 7.3, 1:1 Langmuir fit).
T2 construct: also called HSA
T2 sequence (P02768 25-609 limits assumed): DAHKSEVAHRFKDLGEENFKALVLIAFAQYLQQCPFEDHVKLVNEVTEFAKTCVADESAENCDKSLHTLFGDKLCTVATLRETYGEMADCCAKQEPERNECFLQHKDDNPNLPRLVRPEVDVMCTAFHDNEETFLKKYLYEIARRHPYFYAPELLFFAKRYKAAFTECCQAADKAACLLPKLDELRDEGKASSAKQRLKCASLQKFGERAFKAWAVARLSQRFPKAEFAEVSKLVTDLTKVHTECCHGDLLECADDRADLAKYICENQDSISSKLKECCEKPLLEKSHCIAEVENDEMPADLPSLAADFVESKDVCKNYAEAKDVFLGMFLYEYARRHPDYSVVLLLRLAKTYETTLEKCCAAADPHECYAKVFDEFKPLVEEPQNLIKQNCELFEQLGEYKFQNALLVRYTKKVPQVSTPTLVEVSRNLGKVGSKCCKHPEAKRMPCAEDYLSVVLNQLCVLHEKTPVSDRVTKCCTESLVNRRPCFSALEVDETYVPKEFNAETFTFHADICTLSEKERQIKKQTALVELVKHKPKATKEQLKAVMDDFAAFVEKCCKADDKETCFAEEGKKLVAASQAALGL
Protocol: as §1, §2
In the case of B5, the Kd is reported as 7.3 nM. B6 showed a Kd of 5 nM. In the case of B7, the Kd is reported as 0.9 nM. B8 gave a Kd of 5.9 nM.

The binders below were run against T2, human serum albumin (assay: SPR, HSA immobilised).
Protocol: as §1, §2
B1 was tested, and the Kd was ≥ 100 nM. B2 was tested, and the Kd was ≥ 100 nM. With B3 the Kd was ≥ 100 nM. With B4 the Kd was ≥ 100 nM.

These binders were tested against T3, human fibroblast activation protein (hFAP) expressed on the surface of HEK293-hFAP cells (human, UniProt Q12884 1-760) (assay: flow cytometry on HEK293-hFAP cells).
T3 construct: whole, on cells; FAP overexpressing HEK293 cell line
T3 sequence (looked up): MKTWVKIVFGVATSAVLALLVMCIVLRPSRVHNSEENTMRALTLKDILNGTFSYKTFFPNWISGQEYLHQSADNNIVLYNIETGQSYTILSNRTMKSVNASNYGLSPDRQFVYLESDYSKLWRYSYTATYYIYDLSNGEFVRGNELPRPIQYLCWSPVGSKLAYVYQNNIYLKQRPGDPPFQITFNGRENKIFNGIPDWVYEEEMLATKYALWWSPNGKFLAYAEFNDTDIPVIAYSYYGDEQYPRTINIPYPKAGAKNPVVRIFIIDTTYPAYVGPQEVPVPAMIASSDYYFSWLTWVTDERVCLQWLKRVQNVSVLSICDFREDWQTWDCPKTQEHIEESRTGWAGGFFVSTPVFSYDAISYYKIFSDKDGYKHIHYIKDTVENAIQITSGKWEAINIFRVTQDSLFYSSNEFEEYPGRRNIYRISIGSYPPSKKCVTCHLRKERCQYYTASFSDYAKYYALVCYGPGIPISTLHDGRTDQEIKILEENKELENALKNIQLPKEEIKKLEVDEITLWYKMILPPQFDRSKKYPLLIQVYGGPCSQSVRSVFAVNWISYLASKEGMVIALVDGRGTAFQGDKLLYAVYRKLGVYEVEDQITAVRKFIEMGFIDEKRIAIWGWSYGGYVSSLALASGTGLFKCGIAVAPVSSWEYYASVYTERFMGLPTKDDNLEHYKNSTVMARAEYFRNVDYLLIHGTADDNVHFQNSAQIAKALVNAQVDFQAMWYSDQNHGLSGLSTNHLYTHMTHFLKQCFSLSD
Protocol: Fusion proteins were tested with a concentration of 1 μM, 100 nM, 10 nM, 1 nM or 0.1 nM on hFAP expressing HEK293-hFAP-cells. To exclude an unspecific binding, fusion proteins were also incubated on control cells HEK293-pEntry with the same concentrations. […] Supernatants were removed after 45 min, cells were washed in blocking buffer and 100 μl/well rabbit anti-StrepTag antibody (GenScript; A00626), 1:300 diluted in FACS blocking buffer were added. […] Flow cytometry measurement was conducted on the Guava easyCyte 5HT device from Merck-Millipore at excitation wavelength 488 nm and emission wavelength 525/30 nm.
B9: binds. B10: binds. B11: binds.

These binders were tested against T4, hFAP-Fc (human, UniProt Q12884 26-760, limits assumed) (assay: SPR, Fc-tagged FAP captured on immobilised protein A, pH 7.3, 1:1 Langmuir fit).
T4 construct: also called Fc-tagged target (FAP)
T4 sequence (looked up): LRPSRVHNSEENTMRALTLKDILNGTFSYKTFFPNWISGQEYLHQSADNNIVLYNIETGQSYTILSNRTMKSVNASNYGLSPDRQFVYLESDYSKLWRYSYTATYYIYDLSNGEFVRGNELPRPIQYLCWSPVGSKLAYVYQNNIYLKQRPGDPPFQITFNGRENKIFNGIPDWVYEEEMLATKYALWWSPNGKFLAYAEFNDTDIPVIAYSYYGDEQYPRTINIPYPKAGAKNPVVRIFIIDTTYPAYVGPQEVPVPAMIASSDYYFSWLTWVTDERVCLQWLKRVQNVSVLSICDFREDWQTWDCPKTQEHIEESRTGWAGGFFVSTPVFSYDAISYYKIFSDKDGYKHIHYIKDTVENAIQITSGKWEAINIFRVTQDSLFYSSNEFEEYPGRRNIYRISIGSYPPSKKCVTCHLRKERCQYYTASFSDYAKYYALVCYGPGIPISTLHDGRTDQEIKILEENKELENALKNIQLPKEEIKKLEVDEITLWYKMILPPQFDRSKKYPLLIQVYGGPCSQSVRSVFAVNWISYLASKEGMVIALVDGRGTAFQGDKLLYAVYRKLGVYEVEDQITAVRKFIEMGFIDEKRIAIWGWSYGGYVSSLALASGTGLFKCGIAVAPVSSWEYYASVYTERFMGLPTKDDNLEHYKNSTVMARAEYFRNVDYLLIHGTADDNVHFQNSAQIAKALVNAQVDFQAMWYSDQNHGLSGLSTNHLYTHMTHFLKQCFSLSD
Protocol: as §1, §2
Work on B5 yielded a Kd of 4.4 nM. In the case of B6, the Kd is reported as 4 nM. Work on B7 yielded a Kd of 3.4 nM. Work on B8 yielded a Kd of 5.8 nM.
